Consider 19 variants from the supplement of paper PMC10266784.

To fix the notation:
B1: library; numbered along this chain (parent)
chain: MAAAAAAAAEQQSSNGPVKKSMREKAVERRSVNKEHNSNFKAGYIPIDEDRLHKTGLRGRKGNLAICVIILLFILAVINLIITLVIWAVIRIGPNGCDSMEFHESGLLRFKQVSDMGVIHPLYKSTVGGRRNENLVITGNNQPIVFQQGTTKLSVENNKTSITSDIGMQFFDPRTQNILFSTDYETHEFHLPSGVKSLNVQKASTERITSNATSDLNIKVDGRAIVRGNEGVFIMGKTIEFHMGGNMELKAENSIILNGSVMVSTTRLPSSSSGDQLGSGDWVRYKLCMCADGTLFKVQVTSQNMGCQISDNPCGNTH

Variants of B1 are the subject of this data set. The data set can be described thus: SGCB cell-surface expression functional score (HA stain, bin4 vs bin1, normalised to synonymous) (log10 ratio); higher = more cell-surface SGCB (functional). An outline of the steps:
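Human beta-sarcoglycan, tagged with HA and fused to YFP, was built into codon-saturation libraries and delivered by lentivirus at MOI <0.1 into HEK293 cells that stably express alpha-, gamma- and delta-sarcoglycan. After 72 hours, YFP-positive cells were sorted and grown for 5–7 days, then stained on ice with Alexa Fluor 647 anti-HA, fixed, sorted into four 5% intensity bins and amplicon-sequenced. Each variant's functional score is the log ratio of its frequency in the highest bin to that in the lowest bin, taken as the median across codons and transductions. Transductions were done in duplicate, and synonymous variants were scaled per section to mean 0, SD 0.5.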
For the variant MAAAAAAAAEQQSSNGPVKKSMREKAVERRSVNKEHNSNFKAGYIPIDEDRLHKTGLRGRKGNLAICVIILLFILAVINLIITLVIWAVIRIGPNGCDSMEFHESGLLRFKQVSDMGVIHPLYKSTVGGRRNENLVITGNNQPIVFQQGTTKLSVENNKTSITSDIGMQFFDPRTQNILFSTDYETHEFHLPSGVKSLNVQKASTERITSNATSDLNIKVDGRAIVRGNEGVFIMGKTIEFHMGGNMELKAENSIILNGSVMVSTTRLPSSSSGDQSGSGDWVRYKLCMCADGTLFKVQVTSQNMGCQISDNPCGNTH [L277S], the “SGCB cell-surface expression functional score (log10)” value is -0.88.

Turning to MAAAAAAAAEQQSSNGPVKKSMREKAVERRSVNKEHNSNFKAGYIPIDEDRLHKTGLRGRKGNLAICVIILLFILAVINLIITLVIWAVIRIGPNGCDSMEFHESGLLRFKQVSDMGVIHPLYKSTVGGRRNENLVITGNNQPIVFQQGTTKLSVENNKTSITSDIGMQFFDPRTQNILFSTDYETHEFHLPSGVKSLNVQKASTERITSNATSDLNIKVDGRAIVRGNEGVFIMGKTIEFHMGGNMELKAENSIILNGSVMVSTTRLPSSSSGDQNGSGDWVRYKLCMCADGTLFKVQVTSQNMGCQISDNPCGNTH [L277N], the “SGCB cell-surface expression functional score (log10)” value came out at 0.08. With MAAAAAAAAEQQSSNGPVKKSMREKAVERRSVNKEHNSNFKAGYIPIDEDRLHKTGLRGRKGNLAICVIILLFILAVINLIITLVIWAVIRIGPNGCDSMEFHESGLLRFKQVSDMGVIHPLYKSTVGGRRNENLVITGNNQPIVFQQGTTKLSVENNKTSITSDIGMQFFDPRTQNILFSTDYETHEFHLPSGVKSLNVQKASTERITSNATSDLNIKVDGRAIVRGNEGVFIMGKTIEFHMGGNMELKAENSIILNGSVMVSTTRLPSSSSGDQKGSGDWVRYKLCMCADGTLFKVQVTSQNMGCQISDNPCGNTH [L277K], the “SGCB cell-surface expression functional score (log10)” value is -1.8. The result for MAAAAAAAAEQQSSNGPVKKSMREKAVERRSVNKEHNSNFKAGYIPIDEDRLHKTGLRGRKGNLAICVIILLFILAVINLIITLVIWAVIRIGPNGCDSMEFHESGLLRFKQVSDMGVIHPLYKSTVGGRRNENLVITGNNQPIVFQQGTTKLSVENNKTSITSDIGMQFFDPRTQNILFSTDYETHEFHLPSGVKSLNVQKASTERITSNATSDLNIKVDGRAIVRGNEGVFIMGKTIEFHMGGNMELKAENSIILNGSVMVSTTRLPSSSSGDQQGSGDWVRYKLCMCADGTLFKVQVTSQNMGCQISDNPCGNTH [L277Q] reads -0.65. The result for MAAAAAAAAEQQSSNGPVKKSMREKAVERRSVNKEHNSNFKAGYIPIDEDRLHKTGLRGRKGNLAICVIILLFILAVINLIITLVIWAVIRIGPNGCDSMEFHESGLLRFKQVSDMGVIHPLYKSTVGGRRNENLVITGNNQPIVFQQGTTKLSVENNKTSITSDIGMQFFDPRTQNILFSTDYETHEFHLPSGVKSLNVQKASTERITSNATSDLNIKVDGRAIVRGNEGVFIMGKTIEFHMGGNMELKAENSIILNGSVMVSTTRLPSSSSGDQWGSGDWVRYKLCMCADGTLFKVQVTSQNMGCQISDNPCGNTH [L277W] reads 0.44; that for MAAAAAAAAEQQSSNGPVKKSMREKAVERRSVNKEHNSNFKAGYIPIDEDRLHKTGLRGRKGNLAICVIILLFILAVINLIITLVIWAVIRIGPNGCDSMEFHESGLLRFKQVSDMGVIHPLYKSTVGGRRNENLVITGNNQPIVFQQGTTKLSVENNKTSITSDIGMQFFDPRTQNILFSTDYETHEFHLPSGVKSLNVQKASTERITSNATSDLNIKVDGRAIVRGNEGVFIMGKTIEFHMGGNMELKAENSIILNGSVMVSTTRLPSSSSGDQTGSGDWVRYKLCMCADGTLFKVQVTSQNMGCQISDNPCGNTH [L277T], 0.24.

In the case of MAAAAAAAAEQQSSNGPVKKSMREKAVERRSVNKEHNSNFKAGYIPIDEDRLHKTGLRGRKGNLAICVIILLFILAVINLIITLVIWAVIRIGPNGCDSMEFHESGLLRFKQVSDMGVIHPLYKSTVGGRRNENLVITGNNQPIVFQQGTTKLSVENNKTSITSDIGMQFFDPRTQNILFSTDYETHEFHLPSGVKSLNVQKASTERITSNATSDLNIKVDGRAIVRGNEGVFIMGKTIEFHMGGNMELKAENSIILNGSVMVSTTRLPSSSSGDQRGSGDWVRYKLCMCADGTLFKVQVTSQNMGCQISDNPCGNTH [L277R], the “SGCB cell-surface expression functional score (log10)” value is -0.27. For MAAAAAAAAEQQSSNGPVKKSMREKAVERRSVNKEHNSNFKAGYIPIDEDRLHKTGLRGRKGNLAICVIILLFILAVINLIITLVIWAVIRIGPNGCDSMEFHESGLLRFKQVSDMGVIHPLYKSTVGGRRNENLVITGNNQPIVFQQGTTKLSVENNKTSITSDIGMQFFDPRTQNILFSTDYETHEFHLPSGVKSLNVQKASTERITSNATSDLNIKVDGRAIVRGNEGVFIMGKTIEFHMGGNMELKAENSIILNGSVMVSTTRLPSSSSGDQIGSGDWVRYKLCMCADGTLFKVQVTSQNMGCQISDNPCGNTH [L277I], the “SGCB cell-surface expression functional score (log10)” value is 0.41. For the variant MAAAAAAAAEQQSSNGPVKKSMREKAVERRSVNKEHNSNFKAGYIPIDEDRLHKTGLRGRKGNLAICVIILLFILAVINLIITLVIWAVIRIGPNGCDSMEFHESGLLRFKQVSDMGVIHPLYKSTVGGRRNENLVITGNNQPIVFQQGTTKLSVENNKTSITSDIGMQFFDPRTQNILFSTDYETHEFHLPSGVKSLNVQKASTERITSNATSDLNIKVDGRAIVRGNEGVFIMGKTIEFHMGGNMELKAENSIILNGSVMVSTTRLPSSSSGDQPGSGDWVRYKLCMCADGTLFKVQVTSQNMGCQISDNPCGNTH [L277P], the “SGCB cell-surface expression functional score (log10)” value is -1.21. Consider MAAAAAAAAEQQSSNGPVKKSMREKAVERRSVNKEHNSNFKAGYIPIDEDRLHKTGLRGRKGNLAICVIILLFILAVINLIITLVIWAVIRIGPNGCDSMEFHESGLLRFKQVSDMGVIHPLYKSTVGGRRNENLVITGNNQPIVFQQGTTKLSVENNKTSITSDIGMQFFDPRTQNILFSTDYETHEFHLPSGVKSLNVQKASTERITSNATSDLNIKVDGRAIVRGNEGVFIMGKTIEFHMGGNMELKAENSIILNGSVMVSTTRLPSSSSGDQMGSGDWVRYKLCMCADGTLFKVQVTSQNMGCQISDNPCGNTH [L277M], for which the “SGCB cell-surface expression functional score (log10)” value was -0.2. As to MAAAAAAAAEQQSSNGPVKKSMREKAVERRSVNKEHNSNFKAGYIPIDEDRLHKTGLRGRKGNLAICVIILLFILAVINLIITLVIWAVIRIGPNGCDSMEFHESGLLRFKQVSDMGVIHPLYKSTVGGRRNENLVITGNNQPIVFQQGTTKLSVENNKTSITSDIGMQFFDPRTQNILFSTDYETHEFHLPSGVKSLNVQKASTERITSNATSDLNIKVDGRAIVRGNEGVFIMGKTIEFHMGGNMELKAENSIILNGSVMVSTTRLPSSSSGDQYGSGDWVRYKLCMCADGTLFKVQVTSQNMGCQISDNPCGNTH [L277Y], the “SGCB cell-surface expression functional score (log10)” value was -0.12. Regarding MAAAAAAAAEQQSSNGPVKKSMREKAVERRSVNKEHNSNFKAGYIPIDEDRLHKTGLRGRKGNLAICVIILLFILAVINLIITLVIWAVIRIGPNGCDSMEFHESGLLRFKQVSDMGVIHPLYKSTVGGRRNENLVITGNNQPIVFQQGTTKLSVENNKTSITSDIGMQFFDPRTQNILFSTDYETHEFHLPSGVKSLNVQKASTERITSNATSDLNIKVDGRAIVRGNEGVFIMGKTIEFHMGGNMELKAENSIILNGSVMVSTTRLPSSSSGDQVGSGDWVRYKLCMCADGTLFKVQVTSQNMGCQISDNPCGNTH [L277V], the “SGCB cell-surface expression functional score (log10)” value was -0.49. In the case of MAAAAAAAAEQQSSNGPVKKSMREKAVERRSVNKEHNSNFKAGYIPIDEDRLHKTGLRGRKGNLAICVIILLFILAVINLIITLVIWAVIRIGPNGCDSMEFHESGLLRFKQVSDMGVIHPLYKSTVGGRRNENLVITGNNQPIVFQQGTTKLSVENNKTSITSDIGMQFFDPRTQNILFSTDYETHEFHLPSGVKSLNVQKASTERITSNATSDLNIKVDGRAIVRGNEGVFIMGKTIEFHMGGNMELKAENSIILNGSVMVSTTRLPSSSSGDQLISGDWVRYKLCMCADGTLFKVQVTSQNMGCQISDNPCGNTH [G278I], the “SGCB cell-surface expression functional score (log10)” value amounted to 0.08. The result for MAAAAAAAAEQQSSNGPVKKSMREKAVERRSVNKEHNSNFKAGYIPIDEDRLHKTGLRGRKGNLAICVIILLFILAVINLIITLVIWAVIRIGPNGCDSMEFHESGLLRFKQVSDMGVIHPLYKSTVGGRRNENLVITGNNQPIVFQQGTTKLSVENNKTSITSDIGMQFFDPRTQNILFSTDYETHEFHLPSGVKSLNVQKASTERITSNATSDLNIKVDGRAIVRGNEGVFIMGKTIEFHMGGNMELKAENSIILNGSVMVSTTRLPSSSSGDQLHSGDWVRYKLCMCADGTLFKVQVTSQNMGCQISDNPCGNTH [G278H] reads -0.29; that for MAAAAAAAAEQQSSNGPVKKSMREKAVERRSVNKEHNSNFKAGYIPIDEDRLHKTGLRGRKGNLAICVIILLFILAVINLIITLVIWAVIRIGPNGCDSMEFHESGLLRFKQVSDMGVIHPLYKSTVGGRRNENLVITGNNQPIVFQQGTTKLSVENNKTSITSDIGMQFFDPRTQNILFSTDYETHEFHLPSGVKSLNVQKASTERITSNATSDLNIKVDGRAIVRGNEGVFIMGKTIEFHMGGNMELKAENSIILNGSVMVSTTRLPSSSSGDQLESGDWVRYKLCMCADGTLFKVQVTSQNMGCQISDNPCGNTH [G278E], 0.27; that for MAAAAAAAAEQQSSNGPVKKSMREKAVERRSVNKEHNSNFKAGYIPIDEDRLHKTGLRGRKGNLAICVIILLFILAVINLIITLVIWAVIRIGPNGCDSMEFHESGLLRFKQVSDMGVIHPLYKSTVGGRRNENLVITGNNQPIVFQQGTTKLSVENNKTSITSDIGMQFFDPRTQNILFSTDYETHEFHLPSGVKSLNVQKASTERITSNATSDLNIKVDGRAIVRGNEGVFIMGKTIEFHMGGNMELKAENSIILNGSVMVSTTRLPSSSSGDQLASGDWVRYKLCMCADGTLFKVQVTSQNMGCQISDNPCGNTH [G278A], 0.15.

Take MAAAAAAAAEQQSSNGPVKKSMREKAVERRSVNKEHNSNFKAGYIPIDEDRLHKTGLRGRKGNLAICVIILLFILAVINLIITLVIWAVIRIGPNGCDSMEFHESGLLRFKQVSDMGVIHPLYKSTVGGRRNENLVITGNNQPIVFQQGTTKLSVENNKTSITSDIGMQFFDPRTQNILFSTDYETHEFHLPSGVKSLNVQKASTERITSNATSDLNIKVDGRAIVRGNEGVFIMGKTIEFHMGGNMELKAENSIILNGSVMVSTTRLPSSSSGDQLFSGDWVRYKLCMCADGTLFKVQVTSQNMGCQISDNPCGNTH [G278F]: the “SGCB cell-surface expression functional score (log10)” value turned out to be 0.12. MAAAAAAAAEQQSSNGPVKKSMREKAVERRSVNKEHNSNFKAGYIPIDEDRLHKTGLRGRKGNLAICVIILLFILAVINLIITLVIWAVIRIGPNGCDSMEFHESGLLRFKQVSDMGVIHPLYKSTVGGRRNENLVITGNNQPIVFQQGTTKLSVENNKTSITSDIGMQFFDPRTQNILFSTDYETHEFHLPSGVKSLNVQKASTERITSNATSDLNIKVDGRAIVRGNEGVFIMGKTIEFHMGGNMELKAENSIILNGSVMVSTTRLPSSSSGDQLDSGDWVRYKLCMCADGTLFKVQVTSQNMGCQISDNPCGNTH [G278D]: the “SGCB cell-surface expression functional score (log10)” value was 0.31. As for MAAAAAAAAEQQSSNGPVKKSMREKAVERRSVNKEHNSNFKAGYIPIDEDRLHKTGLRGRKGNLAICVIILLFILAVINLIITLVIWAVIRIGPNGCDSMEFHESGLLRFKQVSDMGVIHPLYKSTVGGRRNENLVITGNNQPIVFQQGTTKLSVENNKTSITSDIGMQFFDPRTQNILFSTDYETHEFHLPSGVKSLNVQKASTERITSNATSDLNIKVDGRAIVRGNEGVFIMGKTIEFHMGGNMELKAENSIILNGSVMVSTTRLPSSSSGDQLCSGDWVRYKLCMCADGTLFKVQVTSQNMGCQISDNPCGNTH [G278C], the “SGCB cell-surface expression functional score (log10)” value came out at 0.13.
